Results reported in PMC6702080 (2019).

Biological target: T1, BolA2 (Homo sapiens, UniProt Q9H3K6)
T1 chain: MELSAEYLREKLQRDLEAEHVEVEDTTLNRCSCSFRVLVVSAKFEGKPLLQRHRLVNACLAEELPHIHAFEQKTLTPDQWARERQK
Assay: pull-down

Kd: 900 nM
B1: PCBP1 KH3 (protein)
chain: ASTQTTHELTIPNNLIGCIIGRQGANINEIRQMSGAQIKIANPVEGSSGRQVTITGSAASISLAQYLINAR
modifications: Fe(II)+GSH
